According to article doi:10.1101/2025.03.17.643777, “Closed State Structure of the Pore Revealed by Uncoupled Shaker K^+ Channel” (bioRxiv, 2025):

Biological target: the molecule itself
Assay: cryo-EM structure; single-particle cryo-EM of the purified channel in 0.02% GDN, 150 mM KCl, 50 mM TRIS pH 7.5; C4 symmetry imposed

B1: Shaker-IR-I384R (natural protein, UniProt P08510 1-655, looked up)
chain: MAAVALREQQLQRNSLDGYGSLPKLSSQDEEGGAGHGFGGGPQHFEPIPHDHDFCERVVINVSGLRFETQLRTLNQFPDTLLGDPARRLRYFDPLRNEYFFDRSRPSFDAILYYYQSGGRLRRPVNVPLDVFSEEIKFYELGDQAINKFREDEGFIKEEERPLPDNEKQRKVWLLFEYPESSQAARVVAIISVFVILLSIVIFCLETLPEFKHYKVFNTTTNGTKIEEDEVPDITDPFFLIETLCIIWFTFELTVRFLACPNKLNFCRDVMNVIDIIAIIPYFITLATVVAEEEDTLNLPKAPVSPQDKSSNQAMSLAILRVIRLVRVFRIFKLSRHSKGLQRLGRTLKASMRELGLLIFFLFIGVVLFSSAVYFAEAGSENSFFKSIPDAFWWAVVTMTTVGYGDMTPVGVWGKIVGSLCAIAGVLTIALPVPVIVSNFNYFYHRETDQEEMQSQNFNHVTSCPYLPGTLGQHMKKSSLSESSSDMMDLDDGVESTPGLTETHPGRSAVAPFLGAQQQQQQPVASSLSMSIDKQLQHPLQQLTQTQLYQQQQQQQQQQQNGFKQQQQQTQQQLQQQQSHTINASAAAATSGSGSSGLTMRHNNALAVSIETDV
notes: built on the Shaker-IR model PDB 7SIP; The C-terminal HRV 3C site was cut to release the channel from the beads, so residues of the site may remain; also called uncoupled channel; completely uncoupled I384R mutant; not shown: eGFP, C-terminal, cleaved; 8xHis, C-terminal, cleaved
- stoichiometry N: 4
